{
  "source": "the supplement of paper PMC7125110",
  "parents": {"B1": {"name": "glmS ribozyme (parent)", "chain": "AUAAAAGCGCCAGAACUACAGAAAUGUAGUUGACGAGGAGGAGGUUUAUCGAAUUUUCGGCGGAUGCCUCCAAA"}},
  "note": "± gives the standard error. Variants at the floor of the assay were thinned out.",
  "data": [
    {"variants_of": "B1", "assay": "self-cleavage kobs at 2500 uM GlcN6P; higher = faster cleavage; RNA array", "details": "with glucosamine-6-phosphate", "outline": "(§1)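 A hybridised Cy3 probe tracked barcoded ribozyme variants, transcribed in situ by E. coli RNA polymerase on sequenced MiSeq chips, at 37 °C. The variants received 40 μM to 10 mM glucosamine-6-phosphate in HEPES/KCl/Mg(OAc)2 buffer. kobs came from decay fits and kcat and KM from weighted Michaelis–Menten fits.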", "units": {"self-cleavage kobs at 2500 uM GlcN6P": "s⁻¹"}, "values": [
      {"variant": "C8U G32A A33U G35C G37U A39U G51C G60C", "self-cleavage kobs at 2500 uM GlcN6P": "< 1e-05"},
      {"variant": "G7C C11U U54A", "self-cleavage kobs at 2500 uM GlcN6P": "< 1e-05"},
      {"variant": "G9C G66C", "self-cleavage kobs at 2500 uM GlcN6P": "< 1e-05"},
      {"variant": "C10A G41A G43C", "self-cleavage kobs at 2500 uM GlcN6P": "< 1e-05"},
      {"variant": "A12U A33U U49A C68A", "self-cleavage kobs at 2500 uM GlcN6P": "< 1e-05"},
      {"variant": "G7C G51U G66A C67U C68U", "self-cleavage kobs at 2500 uM GlcN6P": "< 1e-05"},
      {"variant": "C10G C34G G51U", "self-cleavage kobs at 2500 uM GlcN6P": "< 1e-05"},
      {"variant": "C8U A33C C58G", "self-cleavage kobs at 2500 uM GlcN6P": "< 1e-05"},
      {"variant": "G9U G29A A42G G60C", "self-cleavage kobs at 2500 uM GlcN6P": "< 1e-05"},
      {"variant": "C10A A53U G60U", "self-cleavage kobs at 2500 uM GlcN6P": "8.13e-05 ± 1.6e-05"},
      {"variant": "G7C G9U G60A", "self-cleavage kobs at 2500 uM GlcN6P": "< 1e-05"},
      {"variant": "A12G A39U U47G", "self-cleavage kobs at 2500 uM GlcN6P": "8.38e-05 ± 1.6e-05"},
      {"variant": "C8A U57C C70G C71U", "self-cleavage kobs at 2500 uM GlcN6P": "< 1e-05"},
      {"variant": "G7U G32C U54A", "self-cleavage kobs at 2500 uM GlcN6P": "< 1e-05"},
      {"variant": "A12G U30G U45G U46A C68U", "self-cleavage kobs at 2500 uM GlcN6P": "< 1e-05"},
      {"variant": "C8G A14G U55G C58U U65G", "self-cleavage kobs at 2500 uM GlcN6P": "< 1e-05"},
      {"variant": "C10U G43A C50U G51C", "self-cleavage kobs at 2500 uM GlcN6P": "< 1e-05"},
      {"variant": "C8A G32C C34G A42U C61A", "self-cleavage kobs at 2500 uM GlcN6P": "< 1e-05"},
      {"variant": "C10G C11A U30C A36C G37U C70A C71U", "self-cleavage kobs at 2500 uM GlcN6P": "8.35e-05 ± 3.8e-05"},
      {"variant": "C8A G32C G40U U55A", "self-cleavage kobs at 2500 uM GlcN6P": "< 1e-05"},
      {"variant": "G9U G41U G60U C70U", "self-cleavage kobs at 2500 uM GlcN6P": "< 1e-05"},
      {"variant": "C8U G60U C61G C70G", "self-cleavage kobs at 2500 uM GlcN6P": "< 1e-05"},
      {"variant": "C11G G41A G62U C68U", "self-cleavage kobs at 2500 uM GlcN6P": "< 1e-05"},
      {"variant": "G7U G32C C34U", "self-cleavage kobs at 2500 uM GlcN6P": "< 1e-05"},
      {"variant": "A12C G41A G63A", "self-cleavage kobs at 2500 uM GlcN6P": "< 1e-05"},
      {"variant": "C8G C11A A33C", "self-cleavage kobs at 2500 uM GlcN6P": "< 1e-05"},
      {"variant": "C10G A42U G62C", "self-cleavage kobs at 2500 uM GlcN6P": "< 1e-05"},
      {"variant": "G7C C10G G51U", "self-cleavage kobs at 2500 uM GlcN6P": "< 1e-05"},
      {"variant": "C8G A48U G62A", "self-cleavage kobs at 2500 uM GlcN6P": "< 1e-05"},
      {"variant": "A12G U30G U46G", "self-cleavage kobs at 2500 uM GlcN6P": "< 1e-05"},
      {"variant": "C10U A36U G51C A53C", "self-cleavage kobs at 2500 uM GlcN6P": "< 1e-05"},
      {"variant": "G9U G32C G41U U47G A52G U65G U69A", "self-cleavage kobs at 2500 uM GlcN6P": "< 1e-05"},
      {"variant": "C11U A52G C71A", "self-cleavage kobs at 2500 uM GlcN6P": "5.37e-05 ± 2.4e-05"},
      {"variant": "C10U G29U G38A", "self-cleavage kobs at 2500 uM GlcN6P": "0.00158 ± 0.0007"},
      {"variant": "G7U A39G U56G C70A", "self-cleavage kobs at 2500 uM GlcN6P": "< 1e-05"},
      {"variant": "C10G C50G U55A", "self-cleavage kobs at 2500 uM GlcN6P": "6.66e-05 ± 2.3e-05"},
      {"variant": "C10A G40U U47G U49C U55A", "self-cleavage kobs at 2500 uM GlcN6P": "< 1e-05"},
      {"variant": "G9C G60A C67U", "self-cleavage kobs at 2500 uM GlcN6P": "< 1e-05"},
      {"variant": "C11U A12G U31G", "self-cleavage kobs at 2500 uM GlcN6P": "0.000738 ± 0.00012"},
      {"variant": "A12G C16G G44U", "self-cleavage kobs at 2500 uM GlcN6P": "< 1e-05"},
      {"variant": "C8G G63U U65C", "self-cleavage kobs at 2500 uM GlcN6P": "< 1e-05"},
      {"variant": "G9U U55C U56G C67U", "self-cleavage kobs at 2500 uM GlcN6P": "< 1e-05"},
      {"variant": "C8U A15C C71G", "self-cleavage kobs at 2500 uM GlcN6P": "< 1e-05"},
      {"variant": "C10G G38U", "self-cleavage kobs at 2500 uM GlcN6P": "< 1e-05"},
      {"variant": "G7C U30A G44A", "self-cleavage kobs at 2500 uM GlcN6P": "< 1e-05"},
      {"variant": "G7U A36U C68U", "self-cleavage kobs at 2500 uM GlcN6P": "< 1e-05"},
      {"variant": "C10U C16U G32U", "self-cleavage kobs at 2500 uM GlcN6P": "6.59e-05 ± 1.7e-05"},
      {"variant": "A12C A15C A48G", "self-cleavage kobs at 2500 uM GlcN6P": "< 1e-05"},
      {"variant": "A12C A36U U46G", "self-cleavage kobs at 2500 uM GlcN6P": "< 1e-05"},
      {"variant": "C11U C16G G32A A42U C70U", "self-cleavage kobs at 2500 uM GlcN6P": "< 1e-05"},
      {"variant": "C11G A15G G59U", "self-cleavage kobs at 2500 uM GlcN6P": "9.06e-05 ± 3.1e-05"},
      {"variant": "C8U G37A C50G A64G C71A", "self-cleavage kobs at 2500 uM GlcN6P": "0.000244 ± 6.7e-05"},
      {"variant": "C8U G38C C61A", "self-cleavage kobs at 2500 uM GlcN6P": "< 1e-05"},
      {"variant": "C10U A53G C61A C67G", "self-cleavage kobs at 2500 uM GlcN6P": "8.38e-05 ± 4.1e-05"},
      {"variant": "C8U A15U G44C", "self-cleavage kobs at 2500 uM GlcN6P": "< 1e-05"},
      {"variant": "C8U A39U A64U", "self-cleavage kobs at 2500 uM GlcN6P": "< 1e-05"},
      {"variant": "A12C A42U C67U", "self-cleavage kobs at 2500 uM GlcN6P": "7.04e-05 ± 1.6e-05"},
      {"variant": "G7U G35U U45A A53C", "self-cleavage kobs at 2500 uM GlcN6P": "< 1e-05"},
      {"variant": "C11U C16G G43A", "self-cleavage kobs at 2500 uM GlcN6P": "< 1e-05"},
      {"variant": "A12G U46G C71U", "self-cleavage kobs at 2500 uM GlcN6P": "9.1e-05 ± 2.1e-05"},
      {"variant": "G7U C10G A12C A42C G62U", "self-cleavage kobs at 2500 uM GlcN6P": "< 1e-05"},
      {"variant": "C11G C67A", "self-cleavage kobs at 2500 uM GlcN6P": "< 1e-05"},
      {"variant": "C11G C16U G51A U65A C67G", "self-cleavage kobs at 2500 uM GlcN6P": "8.38e-05 ± 3e-05"},
      {"variant": "G9C A12C A42C", "self-cleavage kobs at 2500 uM GlcN6P": "< 1e-05"},
      {"variant": "G7U G62C G63C U69C", "self-cleavage kobs at 2500 uM GlcN6P": "< 1e-05"},
      {"variant": "G9U G35A G59A C71U", "self-cleavage kobs at 2500 uM GlcN6P": "< 1e-05"},
      {"variant": "C8A C16U U56A", "self-cleavage kobs at 2500 uM GlcN6P": "< 1e-05"},
      {"variant": "A12G A39G C67A", "self-cleavage kobs at 2500 uM GlcN6P": "0.000177 ± 3.7e-05"},
      {"variant": "A12G U56C C67U", "self-cleavage kobs at 2500 uM GlcN6P": "< 1e-05"},
      {"variant": "C8G A14U A42U", "self-cleavage kobs at 2500 uM GlcN6P": "< 1e-05"},
      {"variant": "C10U G29U A33G A39C U55G C70G", "self-cleavage kobs at 2500 uM GlcN6P": "< 1e-05"},
      {"variant": "G7U U56G C58U", "self-cleavage kobs at 2500 uM GlcN6P": "< 1e-05"},
      {"variant": "C8A G29U G32U", "self-cleavage kobs at 2500 uM GlcN6P": "< 1e-05"},
      {"variant": "C11U A42G U54G G66A", "self-cleavage kobs at 2500 uM GlcN6P": "0.000265 ± 7.1e-05"},
      {"variant": "C10G C11U G32A U45C", "self-cleavage kobs at 2500 uM GlcN6P": "< 1e-05"},
      {"variant": "G9U G29A A33U", "self-cleavage kobs at 2500 uM GlcN6P": "< 1e-05"},
      {"variant": "C10G G32C A53C G63U A64G", "self-cleavage kobs at 2500 uM GlcN6P": "< 1e-05"},
      {"variant": "C11U A15C G41U G60U", "self-cleavage kobs at 2500 uM GlcN6P": "< 1e-05"},
      {"variant": "C11U G13U U30C G44A", "self-cleavage kobs at 2500 uM GlcN6P": "< 1e-05"},
      {"variant": "C11A A33C A53C A64C", "self-cleavage kobs at 2500 uM GlcN6P": "< 1e-05"}
    ]},
    {"variants_of": "B1", "assay": "self-cleavage kobs at 10000 uM GlcN6P; higher = faster cleavage; RNA array", "details": "with glucosamine-6-phosphate", "outline": "as §1", "units": {"self-cleavage kobs at 10000 uM GlcN6P": "s⁻¹"}, "values": [
      {"variant": "A12U A33U U49A C68A", "self-cleavage kobs at 10000 uM GlcN6P": "< 1e-05"},
      {"variant": "C8G C11A A33C", "self-cleavage kobs at 10000 uM GlcN6P": "< 1e-05"},
      {"variant": "C11U A12G U31G", "self-cleavage kobs at 10000 uM GlcN6P": "0.00126 ± 0.0003"},
      {"variant": "C8G G63U U65C", "self-cleavage kobs at 10000 uM GlcN6P": "< 1e-05"},
      {"variant": "G9U U55C U56G C67U", "self-cleavage kobs at 10000 uM GlcN6P": "< 1e-05"},
      {"variant": "G7U U56G C58U", "self-cleavage kobs at 10000 uM GlcN6P": "< 1e-05"},
      {"variant": "C11A A33C A53C A64C", "self-cleavage kobs at 10000 uM GlcN6P": "< 1e-05"}
    ]}
  ]
}
